± gives the standard deviation of the averaged measurements.

We go through eight sequences from the supplement of paper PMC11246515.

A short description of this data set: total protein half-life in vivo (active degradation + dilution); higher = more stable protein.
Where [1] appears, read: E. coli NCM3722 delta-clpP delta-lon delta-hslV, growth: N-lim chemostat, doubling time 6 h.
Where [2] appears, read: E. coli NCM3722 delta-clpP, growth: N-lim chemostat, doubling time 6 h.
Setting [3] is: E. coli NCM3722 delta-hslV, growth: N-lim chemostat, doubling time 6 h.
Setting [4] is: E. coli NCM3722 delta-lon, growth: N-lim chemostat, doubling time 6 h.
The mark [5] stands for this setting: E. coli NCM3722 delta-smpB, growth: N-lim chemostat, doubling time 6 h.
Where [6] appears, read: wild type E. coli NCM3722, growth: C-lim chemostat, doubling time 3 h.
[7] abbreviates: wild type E. coli NCM3722, growth: C-lim chemostat, doubling time 6 h.
Setting [8] is: wild type E. coli NCM3722, growth: C-lim chemostat, doubling time 12 h.
Setting [9] is: wild type E. coli NCM3722, growth: N-lim chemostat, doubling time 6 h.
The mark [10] stands for this setting: wild type E. coli NCM3722, growth: N-lim chemostat, doubling time 12 h.
Setting [11] is: wild type E. coli NCM3722, growth: P-lim chemostat, doubling time 6 h.
[12] abbreviates: wild type E. coli NCM3722, growth: P-lim chemostat, doubling time 12 h.

In the case of “MSEKLQVVTLLGSLRKGSFNGMVARTLPKIAPASMEVNALPSIADIPLYDADVQQEEGFPATVEALAEQIRQADGVVIVTPEYNYSVPGGLKNAIDWLSRLPDQPLAGKPVLIQTSSMGVIGGARCQYHLRQILVFLDAMVMNKPEFMGGVIQNKVDPQTGEVIDQGTLDHLTGQLTAFGEFIQRVKI [P0AGE6]”, the “total protein half-life in vivo” value runs as follows: under setting [1], 6.73 ± 1.1 h; under setting [2], 5.46 ± 0.56 h; under setting [3], 5.61 ± 0.31 h; under setting [4], 5.83 ± 0.28 h; under setting [5], 5.24 ± 0.12 h; under setting [6], 3.116 ± 0.014 h. The “total protein half-life in vivo” value under setting [7] stood at 5.74 ± 0.21 h; the “total protein half-life in vivo” value under setting [8] came to 11.1 ± 0.21 h; the “total protein half-life in vivo” value under setting [9] came to 5.27 ± 0.43 h; the “total protein half-life in vivo” value under setting [10] is 9.39 ± 0.36 h; the “total protein half-life in vivo” value under setting [11] came out at 5.31 ± 0.077 h; the “total protein half-life in vivo” value under setting [12] came out at 12.1 ± 0.48 h.
As to “MDNLDVICIGAAIVDIPLQPVSKNIFDVDSYPLERIAMTTGGDAINEATIISRLGHRTALMSRIGKDAAGQFILDHCRKENIDIQSLKQDVSIDTSINVGLVTEDGERTFVTNRNGSLWKLNIDDVDFARFSQAKLLSLASIFNSPLLDGKALTEIFTQAKARQMIICADMIKPRLNETLDDICEALSYVDYLFPNFAEAKLLTGKETLDEIADCFLACGVKTVVIKTGKDGCFIKRGDMTMKVPAVAGITAIDTIGAGDNFASGFIAALLEGKNLRECARFANATAAISVLSVGATTGVKNRKLVEQLLEEYEG”, the “total protein half-life in vivo” value runs as follows: under setting [1], 4.78 h; under setting [2], 4.22 h; under setting [3], 5.06 ± 0.82 h; under setting [4], 4.44 ± 0.44 h; under setting [5], 4.11 ± 0.23 h; under setting [6], 3.18 ± 0.49 h. Also, the “total protein half-life in vivo” value reads like this: under setting [7], 5.08 ± 0.33 h; under setting [8], 10.1 ± 0.27 h; under setting [9], 4.39 ± 0.065 h; under setting [10], 7.58 ± 0.17 h; under setting [11], 3.97 h; under setting [12], 7.77 ± 1.9 h.
Regarding “MNDTSFENCIKCTVCTTACPVSRVNPGYPGPKQAGPDGERLRLKDGALYDEALKYCINCKRCEVACPSDVKIGDIIQRARAKYDTTRPSLRNFVLSHTDLMGSVSTPFAPIVNTATSLKPVRQLLDAALKIDHRRTLPKYSFGTFRRWYRSVAAQQAQYKDQVAFFHGCFVNYNHPQLGKDLIKVLNAMGTGVQLLSKEKCCGVPLIANGFTDKARKQAITNVESIREAVGVKGIPVIATSSTCTFALRDEYPEVLNVDNKGLRDHIELATRWLWRKLDEGKTLPLKPLPLKVVYHTPCHMEKMGWTLYTLELLRNIPGLELTVLDSQCCGIAGTYGFKKENYPTSQAIGAPLFRQIEESGADLVVTDCETCKWQIEMSTSLRCEHPITLLAQALA [P0A996]”, the “total protein half-life in vivo” value under setting [1] is 6.38 h.
As to “MELLLLSNSTLPGKAWLEHALPLIAEQLQGRRSAVFIPFAGVTQTWDDYTAKTAAVLAPLGVSVTGIHSVVDPVAAIENAEIVIVGGGNTFQLLKQCRERGLLAPITDVVKRGALYIGWSAGANLACPTIRTTNDMPIVDPQGFDALNLFPLQINPHFTNALPEGHKGETREQRIRELLVVAPELTIIGLPEGNWITVSKGHATLGGPNTTYVFKAGEEAVPLEAGHRF [P0A7C6]”, the “total protein half-life in vivo” value worked out at 3.28 h under setting [1]; 3.03 h under setting [6]; 4.93 ± 0.56 h under setting [7]; 9.36 h under setting [8]; 4.73 h under setting [9]; 5.8 h under setting [10]. In addition, the “total protein half-life in vivo” value is, setting by setting: under setting [11], 5.69 ± 0.077 h; under setting [12], 11.1 ± 0.86 h.
“MGFTTRVKSEASEKKPFNFALFWDKYGTFFILAIIVAIFGSLSPEYFLTTNNITQIFVQSSVTVLIGMGEFFAILVAGIDLSVGAILALSGMVTAKLMLAGVDPFLAAMIGGVLVGGALGAINGCLVNWTGLHPFIITLGTNAIFRGITLVISDANSVYGFSFDFVNFFAASVIGIPVPVIFSLIVALILWFLTTRMRLGRNIYALGGNKNSAFYSGIDVKFHILVVFIISGVCAGLAGVVSTARLGAAEPLAGMGFETYAIASAIIGGTSFFGGKGRIFSVVIGGLIIGTINNGLNILQVQTYYQLVVMGGLIIAAVALDRLISK”: the “total protein half-life in vivo” value by setting is: under setting [3], 5.22 h; under setting [7], 5.91 h.
Regarding “MTDLHTDVERYLRYLSVERQLSPITLLNYQRQLEAIINFASENGLQSWQQCDVTMVRNFAVRSRRKGLGAASLALRLSALRSFFDWLVSQNELKANPAKGVSAPKAPRHLPKNIDVDDMNRLLDIDINDPLAVRDRAMLEVMYGAGLRLSELVGLDIKHLDLESGEVWVMGKGSKERRLPIGRNAVAWIEHWLDLRDLFGSEDDALFLSKLGKRISARNVQKRFAEWGIKQGLNNHVHPHKLRHSFATHMLESSGDLRGVQELLGHANLSTTQIYTHLDFQHLASVYDAAHPRAKRGK [P0A8P6]”, the “total protein half-life in vivo” value is, setting by setting: under setting [1], 4.56 ± 0.07 h; under setting [2], 2.2684 ± 0.0015 h; under setting [3], 1.38 h; under setting [4], 2.36 ± 0.25 h; under setting [5], 1.64 ± 0.28 h; under setting [6], 1.59 ± 0.34 h. The “total protein half-life in vivo” value under setting [7] came out at 2.67 h; the “total protein half-life in vivo” value under setting [9] is 1.81 h; the “total protein half-life in vivo” value under setting [10] was found to be 2.08 ± 0.12 h; the “total protein half-life in vivo” value under setting [11] worked out at 1.87 ± 0.3 h; the “total protein half-life in vivo” value under setting [12] is 3.1 ± 0.58 h.
Consider “MSEQETRGANEAIDFNDELRNRREKLAALRQQGVAFPNDFRRDHTSDQLHEEFDAKDNQELESLNIEVSVAGRMMTRRIMGKASFVTLQDVGGRIQLYVARDSLPEGVYNDQFKKWDLGDIIGARGTLFKTQTGELSIHCTELRLLTKALRPLPDKFHGLQDQEVRYRQRYLDLIANDKSRQTFVVRSKILAAIRQFMVARGFMEVETPMMQVIPGGASARPFITHHNALDLDMYLRIAPELYLKRLVVGGFERVFEINRNFRNEGISVRHNPEFTMMELYMAYADYHDLIELTESLFRTLAQEVLGTTKVTYGEHVFDFGKPFEKLTMREAIKKYRPETDMADLDNFDAAKALAESIGITVEKSWGLGRIVTEIFDEVAEAHLIQPTFITEYPAEVSPLARRNDVNPEITDRFEFFIGGREIGNGFSELNDAEDQAERFQEQVNAKAAGDDEAMFYDEDYVTALEYGLPPTAGLGIGIDRMIMLFTNSHTIRDVILFPAMRPQK [P0A8N5]”, for which the “total protein half-life in vivo” value runs as follows: under setting [1], 5.8 ± 0.78 h; under setting [2], 5.16 ± 0.085 h; under setting [3], 4.88 ± 0.071 h; under setting [4], 5.06 ± 0.16 h; under setting [5], 4.87 ± 0.087 h; under setting [6], 3.05 ± 0.11 h. Further, the “total protein half-life in vivo” value runs as follows: under setting [7], 5.71 ± 0.27 h; under setting [8], 9.948 ± 0.028 h; under setting [9], 4.74 ± 0.36 h; under setting [10], 7.77 ± 0.82 h; under setting [11], 5.55 ± 0.27 h; under setting [12], 11.2 ± 0.22 h.
Regarding “MLFTLKKVIGNMLLPLPLMLLIIGAGLALLWFSRFQKTGKIFISIGWLALLLLSLQPVADRLLRPIESTYPTWNNSQKVDYIVVLGGGYTWNPQWAPSSNLINNSLPRLNEGIRLWRENPGSKLIFTGGVAKTNTVSTAEVGARVAQSLGVPREQIITLDLPKDTEEEAAAVKQAIGDAPFLLVTSASHLPRAMIFFQQEGLNPLPAPANQLAIDSPLNPWERAIPSPVWLMHSDRVGYETLGRIWQWLKGSSGEPRQE [P0AB01]”, the “total protein half-life in vivo” value under setting [1] came out at 6.15 ± 0.43 h; the “total protein half-life in vivo” value under setting [2] stood at 6.08 ± 0.23 h; the “total protein half-life in vivo” value under setting [4] was 5.87 ± 0.097 h; the “total protein half-life in vivo” value under setting [5] was determined as 5.72 ± 0.58 h; the “total protein half-life in vivo” value under setting [6] came to 3.28 ± 0.37 h; the “total protein half-life in vivo” value under setting [7] was 5.4 ± 0.28 h. In addition, the “total protein half-life in vivo” value is, setting by setting: under setting [8], 10.5 ± 4.9 h; under setting [9], 6.09 ± 0.25 h; under setting [11], 6.876 ± 0.0024 h; under setting [12], 10.6 ± 2.9 h.
